Reference: IntAct's records for PubMed 21526221

B1: SWI5-dependent HO expression protein 3 (Saccharomyces cerevisiae), P38272 (parent)
chain: MSDQDNTQTSSSKLAPHHNIFMANLESSPTKDRNTSSQNASSSRVIESLHDQIDMLTKTNLQLTTQSQNLLSKLELAQSKESKLLENLNLLKNENENLNSIFERKNKKLKELEKDYSELSNRYNEQKEKMDQLSKLAKNSSAIEQSCSEKLQNMEVNYNSLLESQNLYRDHYSDEISKLNEKIGLLELELSNQNLNYGSDTSSNSDIELNLNKFNDSVKDLKSLETEKDSKLSKIITHSLDELNLQSWLNLYQTNENLISTFAEKMDLKDVLKRNDEKISNKGAVVQTLKKNVQTQVESNNADALSSNNAQDMLPIKMVKLRKTPNTNDSSSNGNSSNNKRRSFYTASPLLSSGSIPKSASPVLPGVKRTASVRKPSSSSSKTNVTHNNDPSTSPTISVPPGVTRTVSSTHKKKGNSMVVHGAQS

Variants of: B1
Conditions: with she2_yeast SHE2, P36068
Chain of she2_yeast SHE2, P36068 (P36068 whole entry): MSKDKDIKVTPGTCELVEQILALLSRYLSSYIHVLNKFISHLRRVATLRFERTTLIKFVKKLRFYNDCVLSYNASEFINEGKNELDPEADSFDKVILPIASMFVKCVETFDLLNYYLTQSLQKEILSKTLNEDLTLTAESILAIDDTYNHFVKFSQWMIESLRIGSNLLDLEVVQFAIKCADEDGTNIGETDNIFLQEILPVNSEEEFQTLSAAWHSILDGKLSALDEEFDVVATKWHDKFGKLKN

Row | effect of a mutation on the interaction | Variant
1 | disrupting interaction | L364A;V367A
